The target in the assay is xenopus Lgr4 ectodomain (residues 24-455) (xenopus). In words: SEC + other: dynamic light scattering.

“xenopus Lgr4 ectodomain (residues 24-455) (domain or fragment)”: the stoichiometry N worked out at 2.

The values are drawn from paper PMC3777832.
